# B1: TPR t1 (parent)
# chain: GACCAAUCUGCCCUCAGAGCUCGAGAACAUCUUCGGAUGCAGAGGAGGCAGGCUUCGGUGGCGCGAUAGCGCCAACGUCCUCAACCUCCAAUGCAUCCCACCACAUGAUGAUGCCUGAAGAGCCUUGGUUUUUUG
# Variants of: B1
# Experiment: polymerase ribozyme fitness, log enrichment relative to wild type (log ratio); higher = more active; in vitro selection for triplet polymerase activity
# Outline: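 A single round of triplicate in vitro selection, including frozen incubation at −7 °C, was applied to PCR-built, transcribed mutant libraries of each subunit of a heterodimeric triplet polymerase ribozyme. Illumina sequencing of input and output libraries retained genotypes with ≥10 input reads and ≥1 read per output. Fitness is the base-2 logarithm of genotype enrichment divided by wild-type enrichment, from inverse-variance-weighted replicate averages.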
row,Variant,polymerase ribozyme fitness (log ratio)
1,G77C U96C G117A,-2.46
2,A29C,-2.15
3,C4U C11A G44C C82G A121C G127A,-0.143
4,A46U G60C C114A,-2.44
5,C64U U112G,-0.0625
6,C3U G61U C80G,-5.52
7,G17U U87A,-2.81
8,C64G G113A,-6.17
9,C62U U78C C85A U92C C97A,-6.24
10,G63C G135U,-1.25
11,C12G U21C C101U A105U,-4.94
12,A46U C123A,-0.661
13,C72G C86U,0.195
14,C82A G113U C114U,-1.55
15,C72U A118U G120U,-0.322
16,C13G C49A C72U C88A,-2.56
17,C13G C40A,-0.524
18,A50U G61C C79G U106C C115U C124A,-5.24
19,G48C C49U G71C C102A,-4.66
20,C97U G120C,0.554
21,C11G C85G G117A,-1.6

row,Variant,polymerase ribozyme fitness (log ratio)
1,C40A G60A G93A A121U,1
2,A74U G128C,-2.66
3,C89G G93C,-3.36
4,U9A G58A G61A C85A,-1.75
5,G17U A37U G47U,-5.29
6,C11G C76G,-0.0651
7,A90U G110A,-4.07
8,A68G A103C,-5.02
9,C11A G36A C79U U87A,-4.09
10,G17C G25U G47C G120A G127A,-7.42
11,C28A U38G G60A,-5.64
12,U78A C101G,-2.13
13,U87G G110A,-0.698
14,C97U A118U,-2.1
15,A2G C15U A43U G45U C56U C62U,-6.15
16,G45U A75G U106C A119U A121C U130A,-0.0532
17,A6U C13U G61C U112A,-1.1
18,C12G C22A C49A U55A C56U C62G G93U,-7.34
19,A16U U133G,-2.05
20,A16C C79G,-4.14
21,C40G C104A,-2.31

row,Variant,polymerase ribozyme fitness (log ratio)
1,C85U C114U,-3.18
2,C72U U78C C86G G127C,-2.25
3,C89A C114A,-2.6
4,C13G C70U U112G,-2.26
5,C8A A46U G61A G117C,-2.38
6,G63C C123A,0.07
7,C82U U125A,-0.249
8,A6C G35U U59C A83U C98G A121U,-4.28
9,C11A G60U U87C U112C G117A U130C,-5.25
10,C70U U87G G120C,1.04
11,C8G C13G C40U U54G,0.0381
12,C64A,-6.28
13,C12A G63U,-2.42
14,C12U G36C A46U C72G U112C G127U,-1.47
15,C8U C12A C40A G61U A66G,-1.69
16,G23U G44C C53G C94A U106G G113A,-7.53
17,C8U G58C U59A G60A,-0.843
18,G25A C49U,-6.96
19,U9G C13A,-0.971
20,G52A C79U G120U,-0.265
21,A6C U7C C56U A91G U106G G120U,-4.11

row,Variant,polymerase ribozyme fitness (log ratio)
1,G63C C89A U116G,-4.71
2,U7G A41C C114G,-0.902
3,U7A U116G,-1.35
4,A43U G45A C53U C56G C62U A84U,-1.89
5,C73U C85A G120U,-0.527
6,U9C G36U G47U,-2.03
7,C8A A16G C56A C73A,-0.741
8,U9A C22A C89A G113U A118U G135U,-5.73
9,U38C C53A G93C G122A C123U,-2.19
10,G17U C20A G61U U87A,-4.07
11,G71C C82A A100U G120U,-1.87
12,C4U C12A C53A C56U C89G A121G,-1.89
13,G39C C98U G117A,-3.94
14,A26C C53A U112G,-5.53
15,C11G G35A C73G U81G U109A,-6.69
16,G19U C94A A105C C114A A118U,-0.986
17,U38C G117U G120A,-2.23
18,C70A A75G,-2.89
19,U30C C56A C82U C94U G113C,-5.15
20,C53A U55G,0.151

# Reference: the RNAGym collection of RNA variant scans (doi:10.1073/pnas.2313332121)
